Reference: the supplement of paper PMC10065799, “High-throughput profiling of sequence recognition by tyrosine kinases and SH2 domains using bacterial peptide display” (eLife, 2023)

molecular target: Hck (UniProt P08631); assay: phosphorylation enrichment, bacterial display (enrichment ratio); higher = better substrate or ligand; peptides without Tyr show the background
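For SH2 binding enrichment of the phosphorylated peptide, bacterial display in this document: peptide library displayed on the E. coli surface as eCPX fusions, selected cells deep-sequenced, score is each peptide's frequency after selection divided by its frequency in the input.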
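For phosphorylation enrichment, bacterial display in this document: 11-residue human phosphosite peptides and single-mutation variants displayed on the E. coli surface, counted by deep sequencing, each peptide's frequency after selection divided by its frequency in the unselected input library; frequency after pTyr selection over input frequency; kinase dosed for 20-30% of maximal phosphorylation in three min.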

Chain of Hck (P08631 whole entry, looked up, the tested form may be a part): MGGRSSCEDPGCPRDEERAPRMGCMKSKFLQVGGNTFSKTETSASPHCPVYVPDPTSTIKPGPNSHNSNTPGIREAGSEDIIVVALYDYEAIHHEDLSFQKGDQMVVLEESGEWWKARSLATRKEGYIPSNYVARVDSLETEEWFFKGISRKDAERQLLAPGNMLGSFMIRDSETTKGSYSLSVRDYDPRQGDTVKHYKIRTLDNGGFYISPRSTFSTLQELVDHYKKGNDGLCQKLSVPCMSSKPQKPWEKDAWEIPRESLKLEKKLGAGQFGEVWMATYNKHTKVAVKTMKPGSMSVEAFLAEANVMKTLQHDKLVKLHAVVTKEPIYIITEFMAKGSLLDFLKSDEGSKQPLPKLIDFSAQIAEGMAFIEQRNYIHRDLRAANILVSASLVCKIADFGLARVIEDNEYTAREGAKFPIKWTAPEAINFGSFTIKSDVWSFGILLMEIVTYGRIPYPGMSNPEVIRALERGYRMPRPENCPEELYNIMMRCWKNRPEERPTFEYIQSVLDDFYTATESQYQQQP

Point of comparison: LENSTYQYIHV [CRB1_Y760_R764H], phosphorylation enrichment 7.21. Against it:
- PPSELYFVKVD [TERT_Y707_P704S] — lower, 1.95
- TAIFIYIRPKA [OR10C1_Y258_L255I] — lower, 0.481
- LFMGDYVDRGY [PPP2CA_Y86] — lower, 1.01
- RAMRRYLEWGE [ERBB3_Y680_R683W] — lower, 0.657
- QVMDGYPMPIG [MMP14_Y353] — lower, 0.601
- STDDGCIDLQF [TMEM230_Y29_Y29C] — lower, 0.665
- FDGKEYDPVEA [MAPRE2_Y167_YF] — lower, 0.617
- CTTIHYHYMCN [TP53_Y234_N235H] — lower, 0.551
- TGVRDYIHVVD [GALE_Y241] — lower, 0.493
- ISIFFYAKGQP [MPZ_Y82_H81Y_YF] — lower, 0.573
- HRDSSYFWEIE [RAF1_Y340_Q335H_YF] — lower, 0.638
- GFSRHYEDGFP [CTNND1_Y217_YF] — lower, 0.435
- MKALGYFAVGT [OPA1_Y498_V502G] — lower, 0.489
- PEFMVYKPQME [CCRL2_Y170_V168M] — lower, 0.661
- ALARKYHGGGG [HBB_Y146_H144R] — lower, 0.317

molecular target: Jak2 (UniProt O60674); assay: as above
Sequence (O60674 whole entry, looked up): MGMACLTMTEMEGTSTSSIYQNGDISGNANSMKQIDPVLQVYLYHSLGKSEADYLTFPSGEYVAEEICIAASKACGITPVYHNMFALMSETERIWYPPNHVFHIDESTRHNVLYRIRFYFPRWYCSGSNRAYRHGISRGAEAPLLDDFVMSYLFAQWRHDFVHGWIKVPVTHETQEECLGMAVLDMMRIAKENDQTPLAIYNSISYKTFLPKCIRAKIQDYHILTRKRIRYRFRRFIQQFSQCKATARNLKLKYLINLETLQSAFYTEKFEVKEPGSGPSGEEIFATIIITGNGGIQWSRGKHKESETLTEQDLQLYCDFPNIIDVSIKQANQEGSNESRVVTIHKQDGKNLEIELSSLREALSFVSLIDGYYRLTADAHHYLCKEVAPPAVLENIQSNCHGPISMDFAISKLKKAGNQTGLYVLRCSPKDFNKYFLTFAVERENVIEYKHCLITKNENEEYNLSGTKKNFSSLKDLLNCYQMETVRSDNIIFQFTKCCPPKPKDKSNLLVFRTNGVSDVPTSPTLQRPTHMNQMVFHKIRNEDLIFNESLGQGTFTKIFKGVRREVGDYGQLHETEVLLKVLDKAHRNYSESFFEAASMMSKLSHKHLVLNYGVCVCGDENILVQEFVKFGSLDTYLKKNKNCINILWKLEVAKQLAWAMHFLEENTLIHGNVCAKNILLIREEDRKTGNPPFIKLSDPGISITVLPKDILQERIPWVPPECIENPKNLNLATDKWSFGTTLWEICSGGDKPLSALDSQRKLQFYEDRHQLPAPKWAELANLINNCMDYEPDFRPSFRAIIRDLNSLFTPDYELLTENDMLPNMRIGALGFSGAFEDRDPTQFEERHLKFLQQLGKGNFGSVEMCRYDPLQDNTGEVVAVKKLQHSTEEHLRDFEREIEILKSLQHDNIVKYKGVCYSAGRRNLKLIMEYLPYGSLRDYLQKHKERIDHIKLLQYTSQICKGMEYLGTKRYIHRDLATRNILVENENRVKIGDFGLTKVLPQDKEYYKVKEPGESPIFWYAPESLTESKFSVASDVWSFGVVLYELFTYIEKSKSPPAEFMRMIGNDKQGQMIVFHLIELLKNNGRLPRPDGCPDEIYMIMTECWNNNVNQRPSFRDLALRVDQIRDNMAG

Point of comparison: TAIFIYIRPKA [OR10C1_Y258_L255I], phosphorylation enrichment 1.46. Against it:
- PPSELYFVKVD [TERT_Y707_P704S] — lower, 0.925
- LENSTYQYIHV [CRB1_Y760_R764H] — lower, 1.18
- LFMGDYVDRGY [PPP2CA_Y86] — lower, 1.41
- RAMRRYLEWGE [ERBB3_Y680_R683W] — lower, 0.677
- QVMDGYPMPIG [MMP14_Y353] — lower, 0.987
- STDDGCIDLQF [TMEM230_Y29_Y29C] — lower, 0.979
- FDGKEYDPVEA [MAPRE2_Y167_YF] — lower, 1.2
- CTTIHYHYMCN [TP53_Y234_N235H] — lower, 0.668
- TGVRDYIHVVD [GALE_Y241] — lower, 0.71
- ISIFFYAKGQP [MPZ_Y82_H81Y_YF] — lower, 1.43
- HRDSSYFWEIE [RAF1_Y340_Q335H_YF] — higher, 2.02
- GFSRHYEDGFP [CTNND1_Y217_YF] — lower, 0.608
- MKALGYFAVGT [OPA1_Y498_V502G] — higher, 1.92
- PEFMVYKPQME [CCRL2_Y170_V168M] — lower, 0.898
- ALARKYHGGGG [HBB_Y146_H144R] — lower, 0.507

molecular target: MERTK (UniProt Q12866); assay: as above
Sequence (Q12866 whole entry, looked up): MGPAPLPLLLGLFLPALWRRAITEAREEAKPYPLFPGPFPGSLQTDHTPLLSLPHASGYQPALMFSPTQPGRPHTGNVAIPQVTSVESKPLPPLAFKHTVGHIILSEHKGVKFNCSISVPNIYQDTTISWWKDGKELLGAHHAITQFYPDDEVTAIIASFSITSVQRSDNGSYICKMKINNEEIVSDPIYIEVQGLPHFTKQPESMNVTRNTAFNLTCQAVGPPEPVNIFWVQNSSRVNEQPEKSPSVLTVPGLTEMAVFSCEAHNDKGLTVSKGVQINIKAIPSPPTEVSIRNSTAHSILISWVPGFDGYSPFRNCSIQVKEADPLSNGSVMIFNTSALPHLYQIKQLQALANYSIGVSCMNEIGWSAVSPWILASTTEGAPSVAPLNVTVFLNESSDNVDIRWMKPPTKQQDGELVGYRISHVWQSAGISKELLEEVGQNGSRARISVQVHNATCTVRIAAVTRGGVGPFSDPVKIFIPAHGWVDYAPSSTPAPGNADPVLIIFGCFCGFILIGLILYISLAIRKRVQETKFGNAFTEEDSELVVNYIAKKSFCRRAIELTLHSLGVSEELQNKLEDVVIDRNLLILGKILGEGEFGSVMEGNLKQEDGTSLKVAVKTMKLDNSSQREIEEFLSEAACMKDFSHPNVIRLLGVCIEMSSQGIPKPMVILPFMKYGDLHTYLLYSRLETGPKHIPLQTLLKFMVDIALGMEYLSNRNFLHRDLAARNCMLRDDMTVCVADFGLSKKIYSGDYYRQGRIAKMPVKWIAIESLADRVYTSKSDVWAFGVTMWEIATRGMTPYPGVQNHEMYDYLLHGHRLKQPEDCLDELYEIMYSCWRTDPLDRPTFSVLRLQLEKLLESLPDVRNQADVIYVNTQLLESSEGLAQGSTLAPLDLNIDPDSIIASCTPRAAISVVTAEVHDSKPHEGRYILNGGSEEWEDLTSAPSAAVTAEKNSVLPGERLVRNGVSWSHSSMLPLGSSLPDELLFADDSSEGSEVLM

Point of comparison: LFMGDYVDRGY [PPP2CA_Y86], phosphorylation enrichment 0.701. Against it:
- PPSELYFVKVD [TERT_Y707_P704S] — higher, 1.82
- TAIFIYIRPKA [OR10C1_Y258_L255I] — lower, 0.387
- LENSTYQYIHV [CRB1_Y760_R764H] — higher, 7.77
- RAMRRYLEWGE [ERBB3_Y680_R683W] — lower, 0.466
- QVMDGYPMPIG [MMP14_Y353] — higher, 0.906
- STDDGCIDLQF [TMEM230_Y29_Y29C] — lower, 0.646
- FDGKEYDPVEA [MAPRE2_Y167_YF] — lower, 0.493
- CTTIHYHYMCN [TP53_Y234_N235H] — lower, 0.446
- TGVRDYIHVVD [GALE_Y241] — lower, 0.331
- ISIFFYAKGQP [MPZ_Y82_H81Y_YF] — lower, 0.527
- HRDSSYFWEIE [RAF1_Y340_Q335H_YF] — lower, 0.628
- GFSRHYEDGFP [CTNND1_Y217_YF] — lower, 0.442
- MKALGYFAVGT [OPA1_Y498_V502G] — lower, 0.355
- PEFMVYKPQME [CCRL2_Y170_V168M] — lower, 0.464
- ALARKYHGGGG [HBB_Y146_H144R] — lower, 0.337

test system: c-Abl (mouse); assay: as above

Point of comparison: PEFMVYKPQME [CCRL2_Y170_V168M], phosphorylation enrichment 0.685. Against it:
- PPSELYFVKVD [TERT_Y707_P704S] — higher, 0.733
- TAIFIYIRPKA [OR10C1_Y258_L255I] — lower, 0.641
- LENSTYQYIHV [CRB1_Y760_R764H] — higher, 1.01
- LFMGDYVDRGY [PPP2CA_Y86] — higher, 0.982
- RAMRRYLEWGE [ERBB3_Y680_R683W] — lower, 0.4
- QVMDGYPMPIG [MMP14_Y353] — higher, 1.03
- STDDGCIDLQF [TMEM230_Y29_Y29C] — lower, 0.668
- FDGKEYDPVEA [MAPRE2_Y167_YF] — higher, 0.924
- CTTIHYHYMCN [TP53_Y234_N235H] — lower, 0.661
- TGVRDYIHVVD [GALE_Y241] — lower, 0.586
- ISIFFYAKGQP [MPZ_Y82_H81Y_YF] — higher, 1.25
- HRDSSYFWEIE [RAF1_Y340_Q335H_YF] — higher, 1.13
- GFSRHYEDGFP [CTNND1_Y217_YF] — lower, 0.405
- MKALGYFAVGT [OPA1_Y498_V502G] — higher, 0.7
- ALARKYHGGGG [HBB_Y146_H144R] — lower, 0.407

test system: c-Src; assay: as above

Point of comparison: QVMDGYPMPIG [MMP14_Y353], phosphorylation enrichment 0.517. Against it:
- PPSELYFVKVD [TERT_Y707_P704S] — higher, 1.26
- TAIFIYIRPKA [OR10C1_Y258_L255I] — higher, 0.521
- LENSTYQYIHV [CRB1_Y760_R764H] — higher, 3.15
- LFMGDYVDRGY [PPP2CA_Y86] — higher, 0.8
- RAMRRYLEWGE [ERBB3_Y680_R683W] — higher, 0.834
- STDDGCIDLQF [TMEM230_Y29_Y29C] — lower, 0.503
- FDGKEYDPVEA [MAPRE2_Y167_YF] — higher, 0.573
- CTTIHYHYMCN [TP53_Y234_N235H] — lower, 0.414
- TGVRDYIHVVD [GALE_Y241] — lower, 0.381
- ISIFFYAKGQP [MPZ_Y82_H81Y_YF] — higher, 0.548
- HRDSSYFWEIE [RAF1_Y340_Q335H_YF] — higher, 0.888
- GFSRHYEDGFP [CTNND1_Y217_YF] — lower, 0.335
- MKALGYFAVGT [OPA1_Y498_V502G] — lower, 0.487
- PEFMVYKPQME [CCRL2_Y170_V168M] — higher, 0.884
- ALARKYHGGGG [HBB_Y146_H144R] — lower, 0.435

molecular target: Grb2 SH2 (UniProt P62993); assay: SH2 binding enrichment of the phosphorylated peptide, bacterial display (enrichment ratio); higher = better substrate or ligand; peptides without Tyr show the background
Sequence (P62993 whole entry, looked up): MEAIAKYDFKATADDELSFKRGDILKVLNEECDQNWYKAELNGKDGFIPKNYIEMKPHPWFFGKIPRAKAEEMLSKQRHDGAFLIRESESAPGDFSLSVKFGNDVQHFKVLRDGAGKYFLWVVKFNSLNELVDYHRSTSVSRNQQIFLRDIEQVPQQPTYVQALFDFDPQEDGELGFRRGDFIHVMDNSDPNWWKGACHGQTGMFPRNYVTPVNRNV

Point of comparison: LENSTYQYIHV [CRB1_Y760_R764H], SH2 binding enrichment 1.05. Against it:
- PPSELYFVKVD [TERT_Y707_P704S] — lower, 0.614
- TAIFIYIRPKA [OR10C1_Y258_L255I] — higher, 1.17
- LFMGDYVDRGY [PPP2CA_Y86] — lower, 0.696
- RAMRRYLEWGE [ERBB3_Y680_R683W] — lower, 0.632
- QVMDGYPMPIG [MMP14_Y353] — lower, 0.675
- STDDGCIDLQF [TMEM230_Y29_Y29C] — lower, 0.939
- FDGKEYDPVEA [MAPRE2_Y167_YF] — lower, 0.985
- CTTIHYHYMCN [TP53_Y234_N235H] — higher, 1.33
- TGVRDYIHVVD [GALE_Y241] — lower, 0.81
- ISIFFYAKGQP [MPZ_Y82_H81Y_YF] — higher, 1.33
- HRDSSYFWEIE [RAF1_Y340_Q335H_YF] — lower, 0.856
- GFSRHYEDGFP [CTNND1_Y217_YF] — lower, 0.708
- MKALGYFAVGT [OPA1_Y498_V502G] — lower, 0.831
- PEFMVYKPQME [CCRL2_Y170_V168M] — lower, 0.794
- ALARKYHGGGG [HBB_Y146_H144R] — lower, 0.8

molecular target: SHP2-C SH2; assay: as above

Point of comparison: FDGKEYDPVEA [MAPRE2_Y167_YF], SH2 binding enrichment 0.408. Against it:
- PPSELYFVKVD [TERT_Y707_P704S] — higher, 0.679
- TAIFIYIRPKA [OR10C1_Y258_L255I] — higher, 0.796
- LENSTYQYIHV [CRB1_Y760_R764H] — higher, 1.06
- LFMGDYVDRGY [PPP2CA_Y86] — higher, 0.927
- RAMRRYLEWGE [ERBB3_Y680_R683W] — higher, 0.571
- QVMDGYPMPIG [MMP14_Y353] — higher, 0.423
- STDDGCIDLQF [TMEM230_Y29_Y29C] — higher, 0.815
- CTTIHYHYMCN [TP53_Y234_N235H] — higher, 5.53
- TGVRDYIHVVD [GALE_Y241] — higher, 0.658
- ISIFFYAKGQP [MPZ_Y82_H81Y_YF] — higher, 0.529
- HRDSSYFWEIE [RAF1_Y340_Q335H_YF] — higher, 0.52
- GFSRHYEDGFP [CTNND1_Y217_YF] — higher, 0.564
- MKALGYFAVGT [OPA1_Y498_V502G] — higher, 0.545
- PEFMVYKPQME [CCRL2_Y170_V168M] — higher, 0.635
- ALARKYHGGGG [HBB_Y146_H144R] — higher, 0.549

molecular target: c-Src SH2; assay: as above

Point of comparison: ALARKYHGGGG [HBB_Y146_H144R], SH2 binding enrichment 0.536. Against it:
- PPSELYFVKVD [TERT_Y707_P704S] — lower, 0.405
- TAIFIYIRPKA [OR10C1_Y258_L255I] — lower, 0.522
- LENSTYQYIHV [CRB1_Y760_R764H] — higher, 1.45
- LFMGDYVDRGY [PPP2CA_Y86] — higher, 0.711
- RAMRRYLEWGE [ERBB3_Y680_R683W] — lower, 0.437
- QVMDGYPMPIG [MMP14_Y353] — higher, 0.572
- STDDGCIDLQF [TMEM230_Y29_Y29C] — higher, 0.76
- FDGKEYDPVEA [MAPRE2_Y167_YF] — higher, 0.795
- CTTIHYHYMCN [TP53_Y234_N235H] — higher, 2.73
- TGVRDYIHVVD [GALE_Y241] — higher, 0.549
- ISIFFYAKGQP [MPZ_Y82_H81Y_YF] — lower, 0.406
- HRDSSYFWEIE [RAF1_Y340_Q335H_YF] — higher, 0.802
- GFSRHYEDGFP [CTNND1_Y217_YF] — higher, 1.44
- MKALGYFAVGT [OPA1_Y498_V502G] — higher, 0.543
- PEFMVYKPQME [CCRL2_Y170_V168M] — lower, 0.457
